Positions count from the first letter of the chain named. Like-named read-outs stand apart in the source and are kept apart here.

The target in assay [1] is T1, Recombinant human RANKL-his protein (R&D, Cat #6449-TEC-010) (human, UniProt O14788 140-317, limits assumed).
T1 sequence (looked up): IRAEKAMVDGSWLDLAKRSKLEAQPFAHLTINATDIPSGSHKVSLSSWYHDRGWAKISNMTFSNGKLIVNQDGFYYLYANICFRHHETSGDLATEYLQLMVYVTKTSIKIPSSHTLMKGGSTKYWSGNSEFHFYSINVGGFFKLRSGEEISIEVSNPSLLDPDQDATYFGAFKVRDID
The assay can be described thus: cell-based or functional assay.

Assay [2] has as its target T2, human RANKL-his protein (prepared in-house with SEQ ID NO: 43) (human, UniProt O14788 136-317).
T2 construct: also called recombinant human RANKL-his
T2 chain: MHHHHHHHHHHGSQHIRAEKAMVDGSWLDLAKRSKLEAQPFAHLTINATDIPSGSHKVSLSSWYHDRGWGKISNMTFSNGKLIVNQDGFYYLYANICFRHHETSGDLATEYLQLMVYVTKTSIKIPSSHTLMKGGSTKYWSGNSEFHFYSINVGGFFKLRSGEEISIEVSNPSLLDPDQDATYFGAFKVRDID
Put plainly: Octet BLI, antibody captured, human RANKL-his in solution (same value as Table 2). How it is done: (§1) Briefly, AHC/AMC biosensors (anti-human/anti-mouse IgG Fc capture, ForteBio) were presoaked with 10 mM glycine (pH 1.5) for 3 seconds, and then dipped in a well with running buffer (0.5% w/v BSA in PBST) for 3 seconds, the soaking and dipping steps were repeated for three times. […] A new baseline was run for 180 seconds in another well with HBS-EP⁺. […] Finally, sensors were presoaked with 10 mM glycine (pH 1.5) for 3 seconds, and then dipped in a well with running buffer for 3 seconds, the soaking and dipping steps repeated for three times. The association and dissociation curves were fit to a 1:1 Langmuir binding model using Octet evaluation software.
In general terms: Biolayer interferometry detects binding as a change in optical thickness at a sensor tip.

Assay [3] deals with T3, biotin-labeled human RANKL-Fc protein (prepared in house, SEQ ID NO.: 40) (human, biotin-labeled (sites not given)).
T3 construct: also called RANKL-Fc-biotin
Put plainly: capture ELISA: captured antibody, biotin-labeled human RANKL-Fc, OD(450-630). The method, then: (§2) Plates were washed once with wash buffer (PBS+0.05% v/v Tween-20, PBST) and then blocked with 200 μl/well blocking buffer (5% w/v non-fatty milk in PBST) for 2 hours at 37° C. […] After a final wash, plates were incubated with 100 μl/well ELISA substrate TMB (Innoreagents, Cat #TMB-S-002) at room temperature. The reaction was stopped in 3-10 minutes with 50 μl/well 1M H₂SO₄, and the absorbance of each well was read on a microplate reader using dual wavelengths mode with 450 nm for TMB and 630 nm as the reference wavelength. The OD (450-630) values were plotted against antibody concentration. Data were analyzed using Graphpad Prism software and EC₅₀ values were reported.
In general terms: In an ELISA, binding on a coated surface is turned into a signal by an enzyme label.

For assay [4], the target named is T3, biotin-labeled human RANKL-Fc protein …. Described as above. The method, then: as §2
Cell supernatants were harvested after six days in shaking flasks, spun down to pellet cells, and then chimeric antibodies were purified from cell supernatants as described above. The purified antibodies were tested in the capture ELISA, competitive ELISA assay and Octet affinity test following the protocols in the foregoing Examples.
This is another data set of the same source.

The target of assay [5] is T2, human RANKL-his protein (prepared …). The assay can be described thus: Octet BLI, antibody captured on AHC/AMC sensor, human RANKL-his in solution, 1:1 fit. How it is done: as §1
In assay [6] the target is T3, biotin-labeled human RANKL-Fc protein …. Put plainly: competitive ELISA: antibody blocks biotin-labeled human RANKL-Fc binding to coated human RANK-Fc. How it is done:
(§3) Briefly, human RANK-Fc proteins (prepared in house, SEQ ID NO.: 41) were coated on 96-well micro plates at 2.0 μg/mL in PBS, 100 μl/well, and incubated overnight at 4° C. The next day, plates were washed with wash buffer (PBS+0.05% w/v Tween-20, PBST), and blocked with 5% w/v non-fatty milk in PBST, 200 μl/well, for 2 hours at 37° C.
(§4) Plates were washed 4 times using wash buffer, and added and incubated with 100 μl/well of streptavidin conjugated HRP (1:10000 dilution in PBST buffer, Jackson ImmunoResearch Laboratories, Inc., Cat #016-030-084) for 40 minutes at 37° C. Plates were washed again using wash buffer. Finally, TMB was added and the reaction was stopped using 1M H₂SO₄, and the absorbance of each well was read on a microplate reader using dual wavelengths mode with 450 nm for TMB and 630 nm as the reference wavelength. The OD (450-630) values were plotted against antibody concentration. Data were analyzed using Graphpad Prism software and IC₅₀ values were reported.

Assay [7] shares this target. Put plainly: competitive ELISA: antibody blocks biotin-labeled human RANKL-Fc binding to coated benchmark denosumab. The method, then: The next day, plates were washed with wash buffer, and blocked with 5% w/v non-fatty milk in PBST, 200 μl/well, for 2 hours at 37° C. […] After incubation at 37° C. for 40 minutes, plates were washed 4 times using wash buffer. Then the plates were added and incubated with 100 μl Peroxidase Streptavidin (1:5000 dilution in PBST buffer, Jackson Immunoresearch, Cat #016-030-084) for 40 minutes at 37° C. Plates were washed again using wash buffer. Finally, TMB was added and the reaction was stopped using 1M H₂SO₄. The absorbance of each well was read on a microplate reader using dual wavelengths mode with 450 nm for TMB and 630 nm as the reference wavelength, and the OD (450-630) values were plotted against antibody concentration. Data were analyzed using Graphpad Prism software and IC₅₀ values were reported.

In assay [8] the target is T1, Recombinant human RANKL-his protein …. Put plainly: cell-based or functional assay. This is another data set of the same source.
Assay [9] shares this target. The assay can be described thus: cell-based or functional assay. The source holds these as a separate data set.
The target in assay [10] is T3, biotin-labeled human RANKL-Fc protein …. The assay can be described thus: capture ELISA: captured antibody, biotin-labeled human RANKL-Fc, OD(450-630). How it is done:
as §2
For the capture ELISA, 96-well micro plates were coated with 2 μg/ml goat anti-human IgG (AffiniPure Goat Anti-Human IgG, F(ab′)₂ fragment specific, Jackson Immunoresearch, Cat #109-005-097) instead of AffiniPure Goat Anti-Mouse IgG, Fcγ fragment specific, 100 μl/well.
This is another data set of the same source.

Assay [11] has the same target. The assay can be described thus: competitive ELISA: antibody blocks biotin-labeled human RANKL-Fc binding to coated human RANK-Fc. The method, then: as §3, §4
The source holds these as a separate data set.

Assay [12] shares this target. The assay can be described thus: competitive ELISA: antibody blocks biotin-labeled human RANKL-Fc binding to coated benchmark denosumab. This is another data set of the same source.
Assay [13] concerns the target T1, Recombinant human RANKL-his protein …. Put plainly: cell-based or functional assay. This is another data set of the same source.
Assay [14] shares this target. Put plainly: cell-based or functional assay. The source holds these as a separate data set.

B1: mouse anti-RANKL monoclonal antibody B1A8 (antibody, V domains shown)
VH: EVQLVESGGDLVKPGGSLKLSCAASGFTFSRYGMSWVRQTPDKRLEWVASISSGGTYTSYPDSVQGRFTITRDSAKNTLYLQMSSLKSEDTAMYYCARRNFITSATDCYFDVWGAGTTVTVSS
VL: DTVLTQSPATLSVTPGASVSLSCRASQSISNNLHWYQQKSHESPRLLIIYASQSISGIPSRFSGSGSGTDFTLSINSVETEDFGVYFCQQSNSWPFTFGGGTKLEIK
notes: Hybridoma-derived mouse IgG; also called Mouse B1A8
B1: the “IC50, RANKL-induced osteoclast differentiation of RAW264.7 cells (pNPP, OD405)” value in assay [1] stood at 0.967 nM. Further, the Kd in assay [2] and in assay [5] was 0.386 nM each time. In addition, the EC50 (as a rule, the concentration needed to bring the measured effect to its halfway point) in assay [3] came out at 0.397 nM; in [4], 0.493 nM. Further, the koff (as a rule, the first-order rate constant of dissociation) in assay [5] came out at 0.000236 s⁻¹. Further, the on-rate (kon) (commonly the rate constant with which the complex forms) in assay [5] was found to be 611000 M⁻¹ s⁻¹. For the same molecule, the values for the 50% inhibitory concentration (IC50) in assay [6] and in assay [7] were 0.26 nM and 0.498 nM, respectively.

B2: mouse anti-RANKL monoclonal antibody D1A1 (antibody, V domains shown)
VH: EVQLVESGGGLVKSGGSLKLSCAASGFTFRNYAMSWVRQTPEKRLEWVAGISSGGTYTYYPDTVKGRFTISRDNARNTLFLQMSSLRSEDTAMYYCARRDYGDVYEWYFDVWGTGTTVTVSS
VL: DIVMTQSHKFMSTSVGDRVSITCKASQDVRTSIAWYQQKPGQSPNLLIYSASYRYTGVPDRFTGSGSGTDFTFTISSVQAEDLAVYYCQQHYSSPWTFGGGTKLEIK
notes: Hybridoma-derived mouse IgG purified on Protein A; also called Mouse D1A1
As for B2, the entries for the “IC50, RANKL-induced osteoclast differentiation of RAW264.7 cells (pNPP, OD405)” value in assay [8] and in assay [9] were 0.839 nM and 3.41 nM, respectively. The dissociation constant Kd in assay [2] and in assay [5] was 0.0718 nM each time. The half-maximal effective concentration (EC50) in assay [10] turned out to be 0.632 nM; in assay [3] it was 0.0826 nM; in [4], 1.11 nM. For the same molecule, the off-rate (koff) in [5] was 7.9e-05 s⁻¹. In [5], this molecule displayed a kon of 1.1e+06 M⁻¹ s⁻¹. The IC50 (as a rule, the concentration at which inhibition is half-maximal) was found to be 0.414 nM in assay [11], 0.0802 nM in assay [6], 0.391 nM in [7] and 1.28 nM in assay [12].

B3: mouse anti-RANKL monoclonal antibody D1E3 (antibody, V domains shown)
VH: B2 VH with S14P, R30S, N31R, N74S, R76K, T78I, F80Y, S84G, T91S, Y95H
VL: B2 VL with T13A, D28G, T31I, S32A, I33V, N45K, Y92H
notes: Hybridoma-derived mouse IgG; also called Mouse D1E3
As to B3, the “IC50, RANKL-induced osteoclast differentiation of RAW264.7 cells (pNPP, OD405)” value in [13] was found to be 0.998 nM. Moreover, the figures for the EC50 in assay [3] and in assay [4] were 0.0464 nM and 0.246 nM, respectively. In addition, the IC50 in [6] came to 0.0365 nM; in assay [7], 0.164 nM.

B4: mouse anti-RANKL monoclonal antibody B4H5 (antibody, V domains shown)
VH: DVQLQESGPDLVKPSQSLSLTCTVTGYSISSGYSWHWIRQFPGNKLEWMDYIHFSGSTNYNPSLKSRISITRDTSKNQFFLQFISVTTEDTATYYCARSGPSTYVMDYWGQGTSVTVSS
VL: DIVMTQSHRFMSTSVGDRVSITCKASQDVGAAVGWYQQKPGQSPKLLIYWASIRDTGVPDRFTGSGSGTDFTLTISNVQSEDLADYFCQHYNSYPLTFGGGTKLEIK
notes: Hybridoma-derived mouse IgG
For the molecule B4, in assay [14], the “IC50, RANKL-induced osteoclast differentiation of RAW264.7 cells (pNPP, OD405)” value is 1.31 nM. The molecule further returned a 50% effective concentration (EC50) in [3] of 0.583 nM. The half-maximal inhibitory concentration (IC50) in assay [6] came to 2.1 nM.
